Results published in patent US20250059278A1 (SICHUAN HUIYU PHARMACEUTICAL, published 2025).
Positions count from the first letter of the chain named.

B1: CD3 monoclonal antibody M28 (antibody, human IgG1, lambda, V domains shown)
VH: EVQLVESGGGLVQPGGSLRLSCAASGFTFNTYAMNWVRQAPGKGLEWVARIRSKYNNYATYYADSVKDRFTISRDDSKSILYLQMNSLKTEDTAMYYCVRHHNFGNSYVSWFAYWGQGTLVTVSS
VL: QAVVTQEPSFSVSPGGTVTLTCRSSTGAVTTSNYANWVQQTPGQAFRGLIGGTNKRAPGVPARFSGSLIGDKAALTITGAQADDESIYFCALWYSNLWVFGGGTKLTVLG
notes: IgG: VH28 + IgG1 mutant CH, VL-1 + CL
B2: Control antibody 1 (antibody, V domains shown)
VH: B1 VH with G15K, R19K, K78Q, S87N, H102G, S125A
VL: QAVVTQESALTTSPGETVTLTCRSSTGAVTTSNYANWVQEKPDHLFTGLIGGTNKRAPGVPARFSGSLIGDKAALTITGAQTEDEAIYFCALWYSNLWVFGGGTKLTVL
notes: also called positive control antibody 1
B3: CD3 monoclonal antibody M25 (antibody, human IgG1, lambda, V domains shown)
VH: B1 VH with H102G, Y108R
VL: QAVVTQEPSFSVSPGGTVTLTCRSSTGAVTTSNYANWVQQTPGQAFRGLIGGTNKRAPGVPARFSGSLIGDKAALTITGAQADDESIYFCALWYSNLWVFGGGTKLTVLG
notes: IgG: VH25 + IgG1 mutant CH, VL-1 + CL
B4: CD3 monoclonal antibody M24 (antibody, human IgG1, lambda, V domains shown)
VH: B1 VH with D68G, M95V, H102S, N106R
VL: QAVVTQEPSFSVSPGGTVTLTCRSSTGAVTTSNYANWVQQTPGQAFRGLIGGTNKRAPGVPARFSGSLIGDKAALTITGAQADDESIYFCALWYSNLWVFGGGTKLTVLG
notes: IgG: VH24 + IgG1 mutant CH, VL-1 + CL
B5: CD3 monoclonal antibody M35 (antibody, human IgG1, lambda, V domains shown)
VH: B1 VH with I80S, S87N, M95V, H102S, F112W
VL: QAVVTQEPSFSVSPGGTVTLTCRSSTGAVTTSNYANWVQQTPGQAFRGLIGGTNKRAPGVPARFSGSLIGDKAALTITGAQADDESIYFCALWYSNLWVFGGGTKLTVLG
notes: IgG: VH35 + IgG1 mutant CH, VL-1 + CL
B6: CD3 monoclonal antibody M30 (antibody, human IgG1, lambda, V domains shown)
VH: B1 VH with H102S, S107G
VL: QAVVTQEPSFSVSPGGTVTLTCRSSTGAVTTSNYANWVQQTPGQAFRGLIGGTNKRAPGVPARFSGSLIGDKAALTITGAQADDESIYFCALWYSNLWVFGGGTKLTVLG
notes: IgG: VH30 + IgG1 mutant CH, VL-1 + CL
B7: CD3 monoclonal antibody M9 (antibody, human IgG1, lambda, V domains shown)
VH: B1 VH with D68G, H102G, A113K
VL: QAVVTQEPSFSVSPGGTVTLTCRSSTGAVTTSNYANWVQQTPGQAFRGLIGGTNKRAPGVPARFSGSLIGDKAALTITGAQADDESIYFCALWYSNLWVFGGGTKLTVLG
notes: IgG: VH9 + IgG1 mutant CH, VL-1 + CL
B8: CD3 monoclonal antibody M15 (antibody, human IgG1, lambda, V domains shown)
VH: B1 VH with I80S, H102G, N103D, F104P
VL: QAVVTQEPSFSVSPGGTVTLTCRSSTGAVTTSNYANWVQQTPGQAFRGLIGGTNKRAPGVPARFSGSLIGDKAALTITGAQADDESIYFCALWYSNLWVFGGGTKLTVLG
notes: IgG: VH15 + IgG1 mutant CH, VL-1 + CL
B9: CD3 monoclonal antibody M26 (antibody, human IgG1, lambda, V domains shown)
VH: B1 VH with S87N, H102G, Y108Q, A113Q
VL: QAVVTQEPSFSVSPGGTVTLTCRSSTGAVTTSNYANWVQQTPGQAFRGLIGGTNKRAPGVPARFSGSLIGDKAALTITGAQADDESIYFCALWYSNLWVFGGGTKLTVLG
notes: IgG: VH26 + IgG1 mutant CH, VL-1 + CL
B10: CD3 monoclonal antibody M8 (antibody, human IgG1, lambda, V domains shown)
VH: B1 VH with I80S, S87N, H102G, S107T, Y114M
VL: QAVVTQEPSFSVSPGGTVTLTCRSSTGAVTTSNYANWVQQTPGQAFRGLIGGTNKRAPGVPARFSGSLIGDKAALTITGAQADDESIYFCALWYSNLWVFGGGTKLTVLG
notes: IgG: VH8 + IgG1 mutant CH, VL-1 + CL
B11: CD3 monoclonal antibody M29 (antibody, human IgG1, lambda, V domains shown)
VH: B1 VH with D68G, H102G, G105P, N106M
VL: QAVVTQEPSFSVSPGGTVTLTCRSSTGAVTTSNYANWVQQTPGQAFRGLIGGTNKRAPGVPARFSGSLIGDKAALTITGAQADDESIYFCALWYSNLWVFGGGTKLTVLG
notes: IgG: VH29 + IgG1 mutant CH, VL-1 + CL
B12: CD3 monoclonal antibody M32 (antibody, human IgG1, lambda, V domains shown)
VH: B1 VH with D68G, I80S, M95V, H102S, Y108R
VL: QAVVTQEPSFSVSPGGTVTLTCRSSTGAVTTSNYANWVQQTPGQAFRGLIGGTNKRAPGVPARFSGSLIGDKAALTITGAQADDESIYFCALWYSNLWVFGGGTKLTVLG
notes: IgG: VH32 + IgG1 mutant CH, VL-1 + CL
B13: CD3 monoclonal antibody M34 (antibody, human IgG1, lambda, V domains shown)
VH: B1 VH with D68G, I80S, S87N, M95V, H102G, G105K, N106Q
VL: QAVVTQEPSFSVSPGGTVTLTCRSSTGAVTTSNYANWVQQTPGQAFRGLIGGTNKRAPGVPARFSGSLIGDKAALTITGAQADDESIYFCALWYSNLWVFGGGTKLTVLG
notes: IgG: VH34 + IgG1 mutant CH, VL-1 + CL
B14: CD3 monoclonal antibody M13 (antibody, human IgG1, lambda, V domains shown)
VH: B1 VH with D68G, I80S, M95V, H102G, G105K, V109G
VL: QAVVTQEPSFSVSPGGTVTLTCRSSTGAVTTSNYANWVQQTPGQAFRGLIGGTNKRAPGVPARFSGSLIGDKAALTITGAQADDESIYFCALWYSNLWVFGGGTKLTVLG
notes: IgG: VH13 + IgG1 mutant CH, VL-1 + CL
B15: CD3 monoclonal antibody M14 (antibody, human IgG1, lambda, V domains shown)
VH: B1 VH with I80S, H102S, A113E
VL: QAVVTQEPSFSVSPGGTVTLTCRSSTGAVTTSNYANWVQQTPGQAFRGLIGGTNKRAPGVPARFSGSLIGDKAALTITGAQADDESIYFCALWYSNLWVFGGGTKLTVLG
notes: IgG: VH14 + IgG1 mutant CH, VL-1 + CL
B16: CD3 monoclonal antibody M22 (antibody, human IgG1, lambda, V domains shown)
VH: B1 VH with D68G, H102E, N103R
VL: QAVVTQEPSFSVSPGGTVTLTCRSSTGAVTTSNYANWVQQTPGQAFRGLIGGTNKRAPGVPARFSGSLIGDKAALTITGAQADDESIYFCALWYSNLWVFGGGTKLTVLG
notes: IgG: VH22 + IgG1 mutant CH, VL-1 + CL
B17: CD3 monoclonal antibody M33 (antibody, human IgG1, lambda, V domains shown)
VH: B1 VH with D68G, I80S, M95V, H102G, S107N, Y114S
VL: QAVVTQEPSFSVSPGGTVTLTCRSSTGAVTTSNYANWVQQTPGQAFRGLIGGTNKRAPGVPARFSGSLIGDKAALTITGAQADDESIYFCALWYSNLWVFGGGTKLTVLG
notes: IgG: VH33 + IgG1 mutant CH, VL-1 + CL
B18: CD3 monoclonal antibody M6 (antibody, human IgG1, lambda, V domains shown)
VH: B1 VH with D68G, I80S, H102G, G105Y, Y114H
VL: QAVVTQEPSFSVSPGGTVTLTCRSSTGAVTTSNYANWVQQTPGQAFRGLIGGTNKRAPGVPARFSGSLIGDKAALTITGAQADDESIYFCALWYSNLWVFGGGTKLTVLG
notes: IgG: VH6 + IgG1 mutant CH, VL-1 + CL

Legend:
[1] = target: T1, Monkey CD3 on cynomolgus HSC-F cells (cynomolgus monkey, UniProt Q95LI5 22-198; Q95LI7 23-181; Q95LI8 22-171); assay: flow cytometry on HSC-F cells
T1 construct: whole, on cells; also called Monkey CD3-expressing cynomolgus HSC-F cells; cynomolgus monkey CD3-expressing HSC-F cells

[2] = target: T2, Human CD3 on Jurkat cells (human, UniProt P07766 23-207; P09693 23-182; P04234 22-171); assay: flow cytometry on Jurkat cells
T2 construct: whole, on cells; also called Human CD3-expressing Jurkat cells; Jurkat (naturally expressing human CD3)

[3] = target: T3, Human CD3εγ recombinant antigen (acrobiosystems, Cat. No. CDG-H52W5) (human, UniProt P07766 23-126; P09693 23-116); assay: SPR chip (Carterra), antibody captured, antigen in flow;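 further: antibodies captured through anti-human IgG Fc at roughly 1000 RU, kinetic constants fitted with a 1:1 binding model in Carterra analysis software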
T3 construct: Bought recombinant protein
Experimental: Antibodies at three concentrations of 4, 2, and 1 μg/mL were immobilized on the HC200M chip containing anti-human IgG Fc secondary antibody (Xantec, Cat. No.: HC200M), and the antibody binding amount was controlled to approximately 1000RU. […] The kinetic constants were obtained by fitting using the 1:1 binding model of Kinetics software from Carterra.

Binder	EC50 [1]	EC50 [2]	Kd [3]	koff [3]	kon [3]
B1	0.287 nM	0.854 nM	2.53 nM	0.00237 s⁻¹	938000 M⁻¹ s⁻¹
B2	0.487 nM	0.473 nM	–	–	–
B3	0.111 nM	0.0954 nM	5.27 nM	0.0048 s⁻¹	910000 M⁻¹ s⁻¹
B4	0.12 nM	1.32 nM	1.06 nM	0.00358 s⁻¹	3.38e+06 M⁻¹ s⁻¹
B5	0.207 nM	0.792 nM	0.842 nM	0.00283 s⁻¹	3.36e+06 M⁻¹ s⁻¹
B6	0.347 nM	0.302 nM	2.93 nM	0.00234 s⁻¹	798000 M⁻¹ s⁻¹
B7	0.237 nM	1.51 nM	1.92 nM	0.0025 s⁻¹	1.3e+06 M⁻¹ s⁻¹
B8	0.118 nM	0.166 nM	160 nM	–	–
B9	0.223 nM	0.235 nM	3.51 nM	0.00543 s⁻¹	1.55e+06 M⁻¹ s⁻¹
B10	0.186 nM	0.268 nM	5.16 nM	0.0032 s⁻¹	620000 M⁻¹ s⁻¹
B11	0.272 nM	0.412 nM	5.88 nM	0.00776 s⁻¹	1.32e+06 M⁻¹ s⁻¹
B12	0.0667 nM	0.188 nM	4.37 nM	0.0133 s⁻¹	3.05e+06 M⁻¹ s⁻¹
B13	0.266 nM	2.58 nM	7.22 nM	0.0034 s⁻¹	471000 M⁻¹ s⁻¹
B14	0.276 nM	0.832 nM	3.33 nM	0.00045 s⁻¹	135000 M⁻¹ s⁻¹
B15	0.271 nM	1.51 nM	0.624 nM	0.00128 s⁻¹	2.05e+06 M⁻¹ s⁻¹
B16	2.31 nM	2.55 nM	3.33 nM	0.00222 s⁻¹	666000 M⁻¹ s⁻¹
B17	1.55 nM	4.92 nM	19.3 nM	0.0054 s⁻¹	280000 M⁻¹ s⁻¹
B18	0.172 nM	0.169 nM	3.63 nM	0.00354 s⁻¹	973000 M⁻¹ s⁻¹
